Tests used:
[1] = target: Hck (UniProt P08631); test: phosphorylation enrichment, bacterial display (enrichment ratio); higher = better substrate or ligand; peptides without Tyr show the background
[2] = target: EPHB2 (UniProt P29323); test: as above
[3] = test system: Fer (mouse); test: as above
[4] = target: Fyn (UniProt P06241); test: as above
[5] = target: EPHB1 (UniProt P54762); test: as above
[6] = target: Fes (UniProt P07332); test: as above
[7] = test system: AncSZ; test: as above
[8] = target: FGFR1 (UniProt P11362); test: as above
Chain of FGFR1 (P11362 whole entry, looked up): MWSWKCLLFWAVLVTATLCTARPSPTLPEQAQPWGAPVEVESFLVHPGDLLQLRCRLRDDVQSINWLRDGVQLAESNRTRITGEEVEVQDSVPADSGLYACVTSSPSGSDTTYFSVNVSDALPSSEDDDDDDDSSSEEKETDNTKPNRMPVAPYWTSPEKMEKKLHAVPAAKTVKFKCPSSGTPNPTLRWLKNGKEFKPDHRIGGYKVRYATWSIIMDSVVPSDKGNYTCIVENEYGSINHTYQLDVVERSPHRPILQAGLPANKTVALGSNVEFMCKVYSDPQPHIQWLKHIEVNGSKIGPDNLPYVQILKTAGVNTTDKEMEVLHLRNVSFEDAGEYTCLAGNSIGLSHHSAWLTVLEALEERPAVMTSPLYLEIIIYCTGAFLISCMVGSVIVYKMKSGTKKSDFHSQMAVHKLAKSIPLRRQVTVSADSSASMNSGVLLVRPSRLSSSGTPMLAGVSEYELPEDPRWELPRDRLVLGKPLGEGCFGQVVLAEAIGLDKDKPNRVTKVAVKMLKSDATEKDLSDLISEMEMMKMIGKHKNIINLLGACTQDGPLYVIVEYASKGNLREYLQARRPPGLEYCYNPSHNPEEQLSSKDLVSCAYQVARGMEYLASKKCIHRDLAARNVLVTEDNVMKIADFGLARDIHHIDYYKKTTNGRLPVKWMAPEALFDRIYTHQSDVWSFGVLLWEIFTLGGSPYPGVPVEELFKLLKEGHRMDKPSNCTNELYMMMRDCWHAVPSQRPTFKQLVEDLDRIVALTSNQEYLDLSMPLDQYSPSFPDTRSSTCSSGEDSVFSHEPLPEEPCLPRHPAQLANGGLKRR

[9] = test system: c-Abl (mouse); test: as above
[10] = target: FGFR3 (UniProt P22607); test: as above
Chain of FGFR3 (P22607 whole entry, looked up): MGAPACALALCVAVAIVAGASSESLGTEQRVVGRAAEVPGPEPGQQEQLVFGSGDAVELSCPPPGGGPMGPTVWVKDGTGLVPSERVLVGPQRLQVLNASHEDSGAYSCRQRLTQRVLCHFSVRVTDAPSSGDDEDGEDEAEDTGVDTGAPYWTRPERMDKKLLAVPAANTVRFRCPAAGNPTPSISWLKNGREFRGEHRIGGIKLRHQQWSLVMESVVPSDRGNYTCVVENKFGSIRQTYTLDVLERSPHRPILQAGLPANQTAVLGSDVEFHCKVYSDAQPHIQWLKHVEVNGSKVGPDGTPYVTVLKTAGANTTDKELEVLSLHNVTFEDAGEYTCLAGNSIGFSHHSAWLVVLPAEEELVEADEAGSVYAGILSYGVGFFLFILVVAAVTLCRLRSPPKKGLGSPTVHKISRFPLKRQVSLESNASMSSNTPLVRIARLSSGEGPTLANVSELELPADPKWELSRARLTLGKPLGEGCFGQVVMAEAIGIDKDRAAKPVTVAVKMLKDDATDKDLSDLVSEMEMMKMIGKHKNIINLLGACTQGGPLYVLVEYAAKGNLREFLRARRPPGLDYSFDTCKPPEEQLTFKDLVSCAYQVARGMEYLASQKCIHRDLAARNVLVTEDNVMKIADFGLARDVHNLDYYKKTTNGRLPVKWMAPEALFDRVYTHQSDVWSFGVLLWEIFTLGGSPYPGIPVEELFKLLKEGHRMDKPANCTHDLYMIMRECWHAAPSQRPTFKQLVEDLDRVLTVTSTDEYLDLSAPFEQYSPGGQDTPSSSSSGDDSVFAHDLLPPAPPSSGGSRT

[11] = target: Jak2 (UniProt O60674); test: as above
[12] = test system: c-Src; test: as above
[13] = target: MERTK (UniProt Q12866); test: as above
[14] = target: c-Src SH2; test: SH2 binding enrichment of the phosphorylated peptide, bacterial display (enrichment ratio); higher = better substrate or ligand; peptides without Tyr show the background
[15] = target: SHP2-C SH2; test: as above
[16] = target: Grb2 SH2 (UniProt P62993); test: as above
Chain of Grb2 SH2 (P62993 whole entry, looked up, the tested form may be a part): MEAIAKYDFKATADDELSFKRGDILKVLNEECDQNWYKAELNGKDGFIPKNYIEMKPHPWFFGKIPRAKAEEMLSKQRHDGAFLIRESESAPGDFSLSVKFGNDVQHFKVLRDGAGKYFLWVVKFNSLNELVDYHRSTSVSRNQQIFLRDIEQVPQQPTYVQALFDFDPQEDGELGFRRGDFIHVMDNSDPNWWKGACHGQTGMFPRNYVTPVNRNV
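Wherever SH2 binding enrichment of the phosphorylated peptide, bacterial display is given: peptide library displayed on the E. coli surface as eCPX fusions, selected cells deep-sequenced, score is each peptide's frequency after selection divided by its frequency in the input.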
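Wherever phosphorylation enrichment, bacterial display is given: 11-residue human phosphosite peptides and single-mutation variants displayed on the E. coli surface, counted by deep sequencing, each peptide's frequency after selection divided by its frequency in the unselected input library; frequency after pTyr selection over input frequency; kinase dosed for 20-30% of maximal phosphorylation in three min.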

Chain of EPHB2 (P29323 whole entry, looked up): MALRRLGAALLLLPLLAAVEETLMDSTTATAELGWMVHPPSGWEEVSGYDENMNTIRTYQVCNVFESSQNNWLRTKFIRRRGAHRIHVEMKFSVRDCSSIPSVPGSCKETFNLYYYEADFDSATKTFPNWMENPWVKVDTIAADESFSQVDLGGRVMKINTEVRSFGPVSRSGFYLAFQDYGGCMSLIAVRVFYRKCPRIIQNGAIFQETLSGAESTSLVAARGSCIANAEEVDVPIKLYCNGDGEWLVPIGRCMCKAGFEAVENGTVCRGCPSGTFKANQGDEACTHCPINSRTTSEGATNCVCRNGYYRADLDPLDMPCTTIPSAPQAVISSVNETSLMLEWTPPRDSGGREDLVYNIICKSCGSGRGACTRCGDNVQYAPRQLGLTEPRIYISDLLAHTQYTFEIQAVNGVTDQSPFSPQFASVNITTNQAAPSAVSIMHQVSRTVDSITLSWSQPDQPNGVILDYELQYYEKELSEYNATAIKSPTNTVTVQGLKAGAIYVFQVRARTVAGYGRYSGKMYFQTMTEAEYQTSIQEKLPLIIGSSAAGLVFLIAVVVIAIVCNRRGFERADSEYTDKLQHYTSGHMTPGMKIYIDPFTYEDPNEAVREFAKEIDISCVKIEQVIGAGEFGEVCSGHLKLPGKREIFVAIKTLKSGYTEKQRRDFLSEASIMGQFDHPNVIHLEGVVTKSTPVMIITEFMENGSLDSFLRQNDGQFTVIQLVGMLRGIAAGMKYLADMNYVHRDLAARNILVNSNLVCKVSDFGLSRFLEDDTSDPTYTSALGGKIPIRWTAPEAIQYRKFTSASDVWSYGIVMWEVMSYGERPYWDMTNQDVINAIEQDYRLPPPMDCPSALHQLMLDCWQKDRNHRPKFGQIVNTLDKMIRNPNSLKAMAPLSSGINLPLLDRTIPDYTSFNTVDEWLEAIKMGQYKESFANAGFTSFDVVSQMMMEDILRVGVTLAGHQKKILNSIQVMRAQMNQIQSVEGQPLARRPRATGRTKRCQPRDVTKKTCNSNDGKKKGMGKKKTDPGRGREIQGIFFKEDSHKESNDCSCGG
Chain of Fes (P07332 whole entry, looked up): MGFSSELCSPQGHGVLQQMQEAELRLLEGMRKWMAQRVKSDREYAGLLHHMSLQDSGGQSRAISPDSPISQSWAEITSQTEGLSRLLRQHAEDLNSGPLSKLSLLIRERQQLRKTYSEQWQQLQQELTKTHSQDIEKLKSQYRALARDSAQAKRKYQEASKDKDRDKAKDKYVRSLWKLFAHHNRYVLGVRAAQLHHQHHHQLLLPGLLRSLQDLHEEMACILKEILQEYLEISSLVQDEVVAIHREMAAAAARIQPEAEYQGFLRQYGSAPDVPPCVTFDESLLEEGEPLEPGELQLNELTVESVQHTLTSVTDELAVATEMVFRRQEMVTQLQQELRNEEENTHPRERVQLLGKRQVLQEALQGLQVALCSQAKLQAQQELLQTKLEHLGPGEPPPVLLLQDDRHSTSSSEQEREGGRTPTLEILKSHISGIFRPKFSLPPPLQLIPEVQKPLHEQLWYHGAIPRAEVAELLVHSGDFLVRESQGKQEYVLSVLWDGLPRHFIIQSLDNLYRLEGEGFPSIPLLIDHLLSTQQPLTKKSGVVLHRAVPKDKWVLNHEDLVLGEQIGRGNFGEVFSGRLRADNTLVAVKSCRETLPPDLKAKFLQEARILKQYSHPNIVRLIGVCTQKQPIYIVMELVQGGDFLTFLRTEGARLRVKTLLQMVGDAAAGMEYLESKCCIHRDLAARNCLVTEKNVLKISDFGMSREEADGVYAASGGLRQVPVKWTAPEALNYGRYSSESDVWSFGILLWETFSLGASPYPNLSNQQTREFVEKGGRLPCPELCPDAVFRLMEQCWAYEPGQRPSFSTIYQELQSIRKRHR
Chain of Hck (P08631 whole entry, looked up): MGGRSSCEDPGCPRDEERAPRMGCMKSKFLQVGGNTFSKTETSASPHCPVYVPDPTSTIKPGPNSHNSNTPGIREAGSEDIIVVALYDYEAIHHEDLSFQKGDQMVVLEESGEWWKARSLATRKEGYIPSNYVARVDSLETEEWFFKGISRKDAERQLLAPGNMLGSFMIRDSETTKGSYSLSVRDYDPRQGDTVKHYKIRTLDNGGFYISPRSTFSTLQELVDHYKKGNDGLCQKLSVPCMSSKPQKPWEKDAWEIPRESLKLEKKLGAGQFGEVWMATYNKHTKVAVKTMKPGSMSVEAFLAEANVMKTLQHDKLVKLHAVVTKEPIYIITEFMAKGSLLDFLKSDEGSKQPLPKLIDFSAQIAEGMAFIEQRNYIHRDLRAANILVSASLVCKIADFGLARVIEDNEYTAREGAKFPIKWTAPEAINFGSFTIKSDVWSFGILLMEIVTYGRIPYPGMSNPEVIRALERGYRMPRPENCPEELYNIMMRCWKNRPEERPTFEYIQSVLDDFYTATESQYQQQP
Chain of Fyn (P06241 whole entry, looked up): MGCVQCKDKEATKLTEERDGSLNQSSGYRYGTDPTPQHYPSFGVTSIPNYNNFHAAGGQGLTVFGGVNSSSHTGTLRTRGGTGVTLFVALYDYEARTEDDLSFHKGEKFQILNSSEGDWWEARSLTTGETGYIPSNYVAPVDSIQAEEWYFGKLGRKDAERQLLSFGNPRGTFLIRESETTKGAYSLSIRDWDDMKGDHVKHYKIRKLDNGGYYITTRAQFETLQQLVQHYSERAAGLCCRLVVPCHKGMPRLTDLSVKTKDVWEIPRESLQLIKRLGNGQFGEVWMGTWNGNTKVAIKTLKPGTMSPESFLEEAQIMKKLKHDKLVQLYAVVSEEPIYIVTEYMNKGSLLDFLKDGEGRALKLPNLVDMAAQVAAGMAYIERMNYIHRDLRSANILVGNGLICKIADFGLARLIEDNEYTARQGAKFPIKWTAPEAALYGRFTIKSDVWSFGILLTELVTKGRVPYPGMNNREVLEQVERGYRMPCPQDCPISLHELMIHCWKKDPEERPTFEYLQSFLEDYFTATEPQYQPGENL

Sequence	phosphorylation enrichment [1]	phosphorylation enrichment [2]	phosphorylation enrichment [3]	phosphorylation enrichment [4]	phosphorylation enrichment [5]	phosphorylation enrichment [6]	phosphorylation enrichment [7]	phosphorylation enrichment [8]	phosphorylation enrichment [9]	phosphorylation enrichment [10]	phosphorylation enrichment [11]	phosphorylation enrichment [12]	phosphorylation enrichment [13]	SH2 binding enrichment [14]	SH2 binding enrichment [15]	SH2 binding enrichment [16]
CTTIFYNFMCN [TP53_Y234_H233Y_YF]	0.562	0.634	1.05	0.592	0.686	1.42	1.12	1.05	0.597	1.12	1.28	1.69	1.93	1.45	1.8	2.09
CTTIHQNYMCN [TP53_Y234_Y234Q]	0.41	0.432	0.387	0.361	0.536	0.917	0.735	0.463	0.695	0.56	0.796	0.414	0.503	0.982	1.13	0.923
CTTIHYNFMCI [TP53_Y234_N239I_YF]	0.529	0.673	0.706	0.477	0.621	1.26	1.05	0.598	0.809	0.707	0.969	0.434	0.392	1.72	1.57	1.71
CTTIHYNFMCS [TP53_Y234_N239S_YF]	0.603	0.507	0.495	0.502	0.634	0.902	0.846	0.572	0.548	0.799	0.823	0.571	0.5	2.25	1.96	1.79
CTTIHYNFMCT [TP53_Y234_N239T_YF]	0.501	0.485	0.501	0.459	0.54	1.01	1.06	0.538	0.839	0.752	0.997	0.551	0.419	1.66	1.99	2.04
CTTIHYNFRCN [TP53_Y234_M237R_YF]	0.439	0.499	0.462	0.471	0.536	0.804	0.763	0.487	0.584	0.637	0.56	0.469	0.386	1.48	1.67	1.61
CTTIHYNYMRN [TP53_Y234_C238R]	0.546	0.502	0.543	0.52	0.605	0.858	0.805	0.521	0.515	0.577	0.673	0.501	0.468	1.83	1.31	1.17
CTTVHYNYMCN [TP53_Y234_I232V]	0.468	0.496	0.77	0.448	0.542	0.915	0.816	0.52	0.557	0.622	0.768	0.492	0.469	6.3	3.24	1.08
CVAARYMDVKG [WFIKKN2_Y93]	0.43	0.516	0.442	0.419	0.535	0.887	0.655	0.445	0.56	0.549	0.696	0.313	0.435	1.16	0.52	0.784
DDKEFYSVHNK [MET_Y1235_Y1230D_YF]	0.453	0.527	0.47	0.413	0.488	0.99	0.882	0.525	0.828	0.571	0.854	0.531	0.422	0.486	0.621	0.831
DEDYLCREELA [POR_Y575_Y575C]	0.99	0.725	0.812	0.878	0.842	1.54	1.68	0.683	0.737	1.43	0.929	0.556	0.676	0.444	0.917	0.948
DEEEEYEYMNR [ERBB3_Y1197_D1194E]	0.484	0.625	0.466	0.567	0.493	1.17	1.17	0.536	0.631	0.665	1	0.408	0.404	0.526	0.645	0.817
DELDKYSEVLK [TPM1_Y60_A63V]	0.558	0.603	0.624	0.599	0.667	1.66	1.49	0.616	0.907	0.923	1.37	0.62	0.48	1.72	0.665	0.837
DENCFYTRAAS [RPS19_Y54_W52C]	0.576	0.554	0.485	0.569	0.587	0.936	1	0.594	0.675	0.728	0.841	0.722	0.461	0.942	3.23	0.868
DENRFYTRAAS [RPS19_Y54_W52R]	0.466	0.478	0.478	0.488	0.497	0.907	1.01	0.515	0.684	0.644	0.721	0.494	0.45	0.876	0.789	1.11
DENWFYTRAAF [RPS19_Y54_S59F]	0.629	0.594	0.571	0.47	0.681	1.32	1.25	0.586	0.868	0.786	1.48	0.534	0.55	0.571	0.96	0.73
DFLEKYFKFGS [NNMT_Y24_YF]	0.521	0.587	0.514	0.437	0.525	1.41	1.12	0.491	0.936	0.826	1.8	0.627	0.564	0.579	0.386	0.764
